Test results taken from patent publication US20240270857A1 (CHIA TAI TIANQING PHARMACEUTICAL GROUP, published 2024).
Substitutions are numbered along the chain they refer to.

T1: human IL-36R overexpressed on 293T-hIL36R-NFκB cells (human, UniProt Q9HB29 20-575)
T1 sequence: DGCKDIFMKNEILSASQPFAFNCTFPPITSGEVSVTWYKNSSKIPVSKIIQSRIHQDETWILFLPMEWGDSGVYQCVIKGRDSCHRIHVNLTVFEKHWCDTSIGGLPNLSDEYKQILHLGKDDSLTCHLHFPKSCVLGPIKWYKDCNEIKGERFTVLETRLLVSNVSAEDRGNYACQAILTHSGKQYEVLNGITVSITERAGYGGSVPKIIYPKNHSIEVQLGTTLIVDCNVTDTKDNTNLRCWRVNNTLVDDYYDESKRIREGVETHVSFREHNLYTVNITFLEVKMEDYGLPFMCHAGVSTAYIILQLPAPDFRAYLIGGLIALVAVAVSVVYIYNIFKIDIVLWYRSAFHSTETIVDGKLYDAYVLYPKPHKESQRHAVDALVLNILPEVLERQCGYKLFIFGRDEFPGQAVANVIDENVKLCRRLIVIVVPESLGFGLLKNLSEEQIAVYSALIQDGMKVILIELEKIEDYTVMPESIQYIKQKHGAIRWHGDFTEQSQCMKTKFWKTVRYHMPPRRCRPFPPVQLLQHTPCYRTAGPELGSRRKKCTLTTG

T2: IL-36R naturally expressed on OVCAR8 cells and on normal human epidermal keratinocytes (NHK cells) (human, UniProt Q9HB29 20-575)
T2 sequence (looked up): T1 sequence

T3: Human IL-1Rrp2/IL-1R6 protein, His Tag (ACROBiosystems, IL2-H52H6) (human, UniProt Q9HB29 20-335)
T3 construct: Bought protein; the soluble protein is likely only the extracellular part; also called hIL-36R; human IL36R antigen; not shown: His tag
T3 sequence: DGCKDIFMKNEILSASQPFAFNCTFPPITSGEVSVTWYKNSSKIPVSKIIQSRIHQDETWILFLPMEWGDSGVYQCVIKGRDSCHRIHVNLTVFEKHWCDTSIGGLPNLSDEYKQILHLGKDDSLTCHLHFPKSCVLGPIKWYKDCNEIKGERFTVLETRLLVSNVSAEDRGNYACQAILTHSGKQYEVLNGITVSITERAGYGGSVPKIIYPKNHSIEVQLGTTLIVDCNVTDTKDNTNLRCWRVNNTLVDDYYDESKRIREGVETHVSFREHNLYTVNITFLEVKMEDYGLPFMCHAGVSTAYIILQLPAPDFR

B1: hz84C4-1.1 (antibody, human IgG4 S228P, kappa, V domains shown)
VH: QVQLVQSGAEVKKPGASVKVSCKASGYFFTSYWMNWVRQAPGQGLEWMGMIHPYDSETRYAQKFQGRVTMTVDKSTSTVYMELSSLRSEDTAVYYCASSTTAFAYWGQGTLVTVSS
VL: DIQMTQSPSSLSASVGDRVTITCRASQDIGNALNWYQQKPGKAPKRLIYATSSLDPGVPSRFSGSRSGTDFTLTISSLQPEDFATYYCLQYASSPYTFGQGTKVEIKR
notes: Humanized, human IgG4 / kappa
B2: hz84C4-2.5 (antibody, human IgG4 S228P, kappa, V domains shown)
VH: B1 VH with A24V, R38N, Y60L, Q65K
VL: B1 VL with Y36L, F71Y
notes: Humanized, human IgG4 / kappa
B3: hz72C1-1.2 (antibody, human IgG4 S228P, kappa)
heavy: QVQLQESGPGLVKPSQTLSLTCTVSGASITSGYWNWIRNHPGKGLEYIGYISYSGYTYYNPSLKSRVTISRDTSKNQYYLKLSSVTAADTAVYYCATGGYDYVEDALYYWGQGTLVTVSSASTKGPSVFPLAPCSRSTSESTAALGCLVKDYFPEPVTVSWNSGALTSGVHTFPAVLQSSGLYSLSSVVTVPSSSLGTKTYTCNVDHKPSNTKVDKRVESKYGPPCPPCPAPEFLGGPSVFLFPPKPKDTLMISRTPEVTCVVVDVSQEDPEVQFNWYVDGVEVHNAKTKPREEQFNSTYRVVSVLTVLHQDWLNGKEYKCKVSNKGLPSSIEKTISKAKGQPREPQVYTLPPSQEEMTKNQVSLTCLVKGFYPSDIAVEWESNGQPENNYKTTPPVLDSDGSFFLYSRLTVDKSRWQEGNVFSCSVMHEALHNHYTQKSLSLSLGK
light: DIQMTQSPSSLSASVGDRVTITCRASSNVRYMYWYQQKPGKAPKLWIYLTSNLASGVPSRFSGSGSGTSYTLTISSLQPEDFATYYCQQFTTSPYTFGQGTKLEIKRTVAAPSVFIFPPSDEQLKSGTASVVCLLNNFYPREAKVQWKVDNALQSGNSQESVTEQDSKDSTYSLSSTLTLSKADYEKHKVYACEVTHQGLSSPVTKSFNRGEC
notes: Humanized, human IgG4 / kappa
B4: hz72C1-2.1 (antibody, human IgG4 S228P, kappa)
heavy: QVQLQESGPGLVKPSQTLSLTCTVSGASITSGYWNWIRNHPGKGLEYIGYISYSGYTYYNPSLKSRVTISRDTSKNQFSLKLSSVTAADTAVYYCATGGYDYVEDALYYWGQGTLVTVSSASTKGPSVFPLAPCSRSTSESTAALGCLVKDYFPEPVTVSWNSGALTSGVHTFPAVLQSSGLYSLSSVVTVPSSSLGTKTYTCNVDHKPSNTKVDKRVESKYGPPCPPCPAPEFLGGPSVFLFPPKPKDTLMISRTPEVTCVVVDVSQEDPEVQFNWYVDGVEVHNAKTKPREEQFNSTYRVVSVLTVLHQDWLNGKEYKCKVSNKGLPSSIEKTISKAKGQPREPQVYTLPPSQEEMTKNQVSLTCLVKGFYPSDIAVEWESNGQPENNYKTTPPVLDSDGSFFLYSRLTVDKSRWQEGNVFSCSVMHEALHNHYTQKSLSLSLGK
light: B3 light with F90Y
notes: Humanized, human IgG4 / kappa
B5: hz72C1-2.3 (antibody, human IgG4 S228P, kappa)
heavy: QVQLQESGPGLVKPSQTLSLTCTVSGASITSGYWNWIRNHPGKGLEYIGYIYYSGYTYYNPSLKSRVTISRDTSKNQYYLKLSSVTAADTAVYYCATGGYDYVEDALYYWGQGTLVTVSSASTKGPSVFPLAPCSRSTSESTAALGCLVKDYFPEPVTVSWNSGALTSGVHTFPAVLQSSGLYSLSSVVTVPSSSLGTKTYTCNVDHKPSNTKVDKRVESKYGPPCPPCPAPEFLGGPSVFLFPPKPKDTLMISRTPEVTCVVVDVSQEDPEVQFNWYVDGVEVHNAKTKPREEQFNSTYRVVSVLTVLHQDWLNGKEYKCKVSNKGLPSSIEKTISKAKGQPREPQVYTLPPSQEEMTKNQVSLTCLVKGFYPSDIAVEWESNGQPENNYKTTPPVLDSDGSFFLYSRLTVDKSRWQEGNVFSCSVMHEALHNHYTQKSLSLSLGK
light: B3 light with F90Y
notes: Humanized, human IgG4 / kappa
B6: hz72C1-2.2 (antibody, human IgG4 S228P, kappa)
heavy: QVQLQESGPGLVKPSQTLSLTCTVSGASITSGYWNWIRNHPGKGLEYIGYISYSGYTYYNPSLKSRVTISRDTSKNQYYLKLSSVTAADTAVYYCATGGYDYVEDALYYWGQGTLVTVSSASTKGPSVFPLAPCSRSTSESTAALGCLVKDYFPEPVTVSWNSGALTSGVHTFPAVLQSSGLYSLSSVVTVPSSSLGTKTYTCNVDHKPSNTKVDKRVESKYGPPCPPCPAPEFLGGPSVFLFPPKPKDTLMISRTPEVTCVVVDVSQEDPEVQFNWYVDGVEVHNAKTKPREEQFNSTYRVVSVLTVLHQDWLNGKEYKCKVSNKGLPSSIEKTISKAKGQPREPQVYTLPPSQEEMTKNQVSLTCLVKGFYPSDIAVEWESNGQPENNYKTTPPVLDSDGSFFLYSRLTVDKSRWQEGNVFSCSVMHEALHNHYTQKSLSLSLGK
light: B3 light with F90Y
notes: Humanized, human IgG4 / kappa
B7: hz72C1-1.1 (antibody, human IgG4 S228P, kappa)
heavy: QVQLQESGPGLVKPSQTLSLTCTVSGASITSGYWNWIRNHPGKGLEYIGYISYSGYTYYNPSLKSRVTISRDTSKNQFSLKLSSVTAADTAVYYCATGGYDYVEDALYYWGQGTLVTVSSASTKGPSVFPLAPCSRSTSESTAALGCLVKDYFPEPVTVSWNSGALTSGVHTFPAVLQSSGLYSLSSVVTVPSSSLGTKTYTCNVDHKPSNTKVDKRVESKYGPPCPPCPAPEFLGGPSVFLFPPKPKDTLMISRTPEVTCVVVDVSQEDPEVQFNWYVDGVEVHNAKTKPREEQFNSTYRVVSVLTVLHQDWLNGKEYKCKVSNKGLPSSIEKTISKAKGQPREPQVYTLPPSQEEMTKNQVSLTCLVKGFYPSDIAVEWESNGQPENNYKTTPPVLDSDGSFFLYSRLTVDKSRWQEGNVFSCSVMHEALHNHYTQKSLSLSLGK
light: B3 light
notes: Humanized, human IgG4 / kappa; also called humanized 72C1 antibody 1.1
B8: hz72C1-1.3 (antibody, human IgG4 S228P, kappa)
heavy: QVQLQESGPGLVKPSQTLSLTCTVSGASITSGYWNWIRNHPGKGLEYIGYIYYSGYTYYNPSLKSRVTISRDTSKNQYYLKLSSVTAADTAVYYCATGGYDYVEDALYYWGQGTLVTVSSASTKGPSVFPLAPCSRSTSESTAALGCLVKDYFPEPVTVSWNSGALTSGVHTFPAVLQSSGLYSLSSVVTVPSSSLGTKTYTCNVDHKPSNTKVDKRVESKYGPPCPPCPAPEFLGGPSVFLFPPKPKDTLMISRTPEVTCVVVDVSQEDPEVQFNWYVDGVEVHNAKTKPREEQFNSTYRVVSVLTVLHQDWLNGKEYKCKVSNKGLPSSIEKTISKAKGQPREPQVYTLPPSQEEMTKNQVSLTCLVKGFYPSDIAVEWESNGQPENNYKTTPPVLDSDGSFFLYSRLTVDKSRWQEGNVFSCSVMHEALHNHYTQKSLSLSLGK
light: B3 light
notes: Humanized, human IgG4 / kappa
B9: hz84C4-1.4 (antibody, human IgG4 S228P, kappa, V domains shown)
VH: B1 VH with F28Y, Y60L, Q65K
VL: B1 VL
notes: Humanized, human IgG4 / kappa
B10: hz84C4-2.1 (antibody, human IgG4 S228P, kappa, V domains shown)
VH: B1 VH
VL: B1 VL with Y36L, F71Y
notes: Humanized, human IgG4 / kappa
B11: hz84C4-1.2 (antibody, human IgG4 S228P, kappa, V domains shown)
VH: B1 VH with M50Y
VL: B1 VL
notes: Humanized, human IgG4 / kappa
B12: hz84C4-2.3 (antibody, human IgG4 S228P, kappa, V domains shown)
VH: B1 VH with H52Y
VL: B1 VL with Y36L, F71Y
notes: Humanized, human IgG4 / kappa
B13: hz84C4-1.5 (antibody, human IgG4 S228P, kappa, V domains shown)
VH: B1 VH with A24V, R38N, Y60L, Q65K
VL: B1 VL
notes: Humanized, human IgG4 / kappa
B14: hz84C4-2.4 (antibody, human IgG4 S228P, kappa, V domains shown)
VH: B1 VH with F28Y, Y60L, Q65K
VL: B1 VL with Y36L, F71Y
notes: Humanized, human IgG4 / kappa
B15: hz84C4-1.3 (antibody, human IgG4 S228P, kappa, V domains shown)
VH: B1 VH with H52Y
VL: B1 VL
notes: Humanized, human IgG4 / kappa
B16: hz84C4-2.2 (antibody, human IgG4 S228P, kappa, V domains shown)
VH: B1 VH with M50Y
VL: B1 VL with Y36L, F71Y
notes: Humanized, human IgG4 / kappa

The binders below were run against T1, human IL-36R overexpressed on … (assay: cell-based or functional assay).

Row | IC50 (M); hIL36α; NFκB-luciferase [M] | IC50 (M); hIL36αβγ; NFκB-luciferase [M] | IC50 (M); hIL36β; NFκB-luciferase [M] | IC50 (M); hIL36γ; NFκB-luciferase [M] | Maximum inhibition rate %; hIL36α; NFκB-luciferase [%] | Maximum inhibition rate %; hIL36αβγ; NFκB-luciferase [%] | Maximum inhibition rate %; hIL36β; NFκB-luciferase [%] | Maximum inhibition rate %; hIL36γ; NFκB-luciferase [%] | Binder
1 | 8.82e-10 | 1.82e-09 | 9.28e-10 | 5.76e-10 | 84.1 | 61.2 | 85.3 | 83.5 | B1
2 | 9.38e-10 | ~1.55e-09 | 7.66e-10 | 3.5e-10 | 85.7 | 54.4 | 83.1 | 84.7 | B2

What follows are binders tested against T2, IL-36R naturally expressed on OVCAR8 … (assay: cell-based or functional assay).

Row | IC50 (M); hIL36α; IL-8 production [M] | IC50 (M); hIL36αβγ; IL-8 production [M] | IC50 (M); hIL36β; IL-8 production [M] | IC50 (M); hIL36γ; IL-8 production [M] | Maximum inhibition rate %; hIL36α; IL-8 production [%] | Maximum inhibition rate %; hIL36αβγ; IL-8 production [%] | Maximum inhibition rate %; hIL36β; IL-8 production [%] | Maximum inhibition rate %; hIL36γ; IL-8 production [%] | Binder
3 | 1.19e-10 | 3.29e-10 | 4.33e-10 | 1.14e-10 | 96.1 | 89.6 | 84.7 | 85.7 | B3
4 | 1.13e-09 | 1.78e-09 | 1.41e-09 | 2.41e-10 | 93.5 | 84.6 | 82.1 | 94.1 | B4
5 | 1.8e-10 | 4.5e-09 | 2.67e-09 | 5.6e-10 | 82 | 80 | 78.3 | 90.8 | B5
6 | 2.45e-10 | 1.49e-09 | 1.1e-09 | 1.18e-09 | 97.3 | 85.3 | 82.5 | 89 | B6
7 | 2.19e-10 | 3.72e-10 | 3.85e-10 | 1.21e-10 | 99 | 93.7 | 86.7 | 102 | B7
8 | 7.09e-11 | 3.82e-10 | 2.4e-10 | 1.03e-10 | 97.3 | 90.3 | 90.3 | 93.5 | B8

The binders below were run against T3, Human IL-1Rrp2/IL-1R6 protein, His Tag … (assay: ELISA, plate coated with human IL-1Rrp2/IL-1R6 His Tag, HRP-protein A/G, OD450).
Method: The binding activity of anti-IL-36R antibodies to IL-36R was analyzed by ELISA using human IL-1Rrp2/IL-1R6 protein, His Tag (ACROBiosystems, IL2-H52H6) and CynoIL36R-ECD mFc (for detection of chimeric and humanized antibodies), and hIL36R-ECD hFc and CynoIL36R-ECD hFc protein (for detection of hybridoma antibodies) as antigens. A 96-well plate (Costar, 9018) was coated with 2 μg/mL antigen at 100 μL/well and incubated overnight at 4° C. After the 96-well plate was washed with a washing buffer (PBS containing 0.05% v/v Tween 20), a blocking buffer (PBS containing 2% bovine serum albumin) was added for blocking at 37° C. for 2 h. After the 96-well plate was washed with the washing buffer, 100 μL of the gradient diluted anti-IL-36R antibody of the present disclosure or the reference antibody BI655130 (the initial concentration of the antibody was 66 nM, 4-fold gradient dilution) was added to each well, and the plate was incubated at room temperature for 1 h. After the 96-well plate was washed with the washing buffer, 100 μL of horseradish peroxidase-conjugated recombinant protein A/G (TheroScientific, 32490) was added to each well, and the plate was incubated at room temperature for 1 h. After the 96-well plate was washed with the washing buffer, 100 μL of a TMB solution (Thermo, 00-4201-56) was added to each well, and the plate was incubated at room temperature for 2 min. Finally, 100 μL of a stop solution (2 N H₂SO₄) was added to each well to stop the reaction. Absorbance was read at 450 nm using a microplate reader (PE, Envision), the resulting data was analyzed using GraphPad Prism, and EC₅₀ was calculated. Binding EC₅₀ of the chimeric anti-IL-36R antibodies to hIL-36R in an ELISA assay is shown in FIG. 1. and binding EC₅₀ of the chimeric anti-IL-36R antibodies to CynoIL-36R in an ELISA assay is shown in FIG. 2. The binding of BI655130 is shown as a control, and the binding of IgG4 is shown as a negative control.

Row | EC50 [nM] | Binder
9 | 0.509 | B1
10 | 0.684 | B9
11 | 0.558 | B10
12 | 0.531 | B11
13 | 2.25 | B12
14 | 0.624 | B13
15 | 0.453 | B14
16 | 3.41 | B15
17 | 0.497 | B2
18 | 0.533 | B16
